Several values for one entry are separate records, joined by “and”; a condition that tells them apart may be missing. Equal entries are not always repeated. Where two headings read alike, the source gives them in different places.
Assays:
[1] = target: N^α-Ac-Lys-(D)-Ala-(D)-Ala peptide; assay: SPR; ratio against free vancomycin
[2] = target: N^α-Ac-Lys-(D)-Ala-(D)-Lac peptide; assay: SPR; ratio against free vancomycin
[3] = target: N^α-Ac-Lys-(D)-Ala-(D)-Ala peptide; assay: SPR (Biacore X), peptide immobilised on CM5 chip, Langmuir fit
[4] = target: N^α-Ac-Lys-(D)-Ala-(D)-Lac peptide; assay: as above
bacterial cells = details: reported in literature; cited from earlier work
[5] = target: N^α-Ac-Lys-(D)-Ala-(D)-Ala peptide; assay: SPR; vancomycin is the reference
[6] = target: N^α-Ac-Lys-(D)-Ala-(D)-Lac peptide; assay: SPR; vancomycin is the reference
[7] = target: N^α-Ac-Lys-(D)-Ala-(D)-Ala peptide; assay: SPR (Biacore X), peptide immobilised on CM5 chip, Scatchard analysis
[8] = target: N^α-Ac-Lys-(D)-Ala-(D)-Lac peptide; assay: as above
[9] = system: N^α-Ac-Lys-(D)-Ala-(D)-Lac peptide; details: cited from earlier work
[10] = target: N^α-Ac-Lys-(D)-Ala-(D)-Ala peptide; details: vancomycin to (D)-Ala-(D)-Ala, literature; cited from earlier work
Staphylococcus aureus = assay: Turbidity assay (bacterial cell lysis / growth); type: cell-based; details: OD at 650 nm, 24 h
Excerpt: This example describes bacterial cell lysis experiments. Whether the binding of the vancomycin-conjugated dendrimer to the bacterial membrane causes bacterial cell lysis was next investigated. […] S.; et al., Antimicrob. Agents Chemother. 2009, 53, 3375-3383; herein incorporated by reference in its entirety)). On the other hand, the lack of such a mechanism would be more desirable for the diagnostic applications that aim for bacterial detection, isolation, and enumeration of whole cells. To determine the degree of cell lysis, a turbidity assay was employed. This assay quantitates the bacterial population in a culture by measuring the optical density (OD at 650 nm), and the cell populations are correlated with the degree of lysis (see, e.g., Chung, H. S.; et al., Proc. Natl. Acad. Sci. U.S.A. 2009, 106, 21872-21877; Lunde, C. S.; et al., Antimicrob. Agents Chemother. 2009, 53, 3375-3383; each herein incorporated by reference in its entirety)). Effects of the conjugates I-VI, VIII, IX on the cell growth rate were determined using the same Gram-positive strain Staphylococcus aureus and were presented as a function of the inhibitor concentration (FIGS. 12 and 13). […]
Turbidity assay. […] After incubation of the plates at 37° C. for 24 h, bacterial growth was examined by optical microscopy and reading an optical density (O. D.) value at 650 nm by an ELISA plate reader.

[11] = system: N^α-Ac-Lys-(D)-Ala-(D)-Ala peptide; assay: SPR binding to vancomycin-susceptible bacterial cell wall model; details: for Kd: (D)-Ala-(D)-Ala surface
Excerpt: SPR spectroscopy is a real-time kinetic method that allows the measurement of the on-rate constant (kon), the off-rate constant (koff), and equilibrium dissociation constant KD (=koff/kon) for receptor-ligand interactions occurring on the surface (see, e.g., Rao, J.; et al., Chem. Biol. (Cambridge, Mass., U.S.) 1999, 6, 353-359; Rao, J.; et al., J. Am. Chem. Soc. 1999, 121, 2629-2630; Hong, S.; et al., Chem. Biol. (Cambridge, Mass., U.S.) 2007, 14, 107-115; Li, M.-H.; Eur. J. Med. Chem. 2012, 47, 560-572; Plantinga, A.; et al., ACS Med. Chem. Lett. 2011, 2, 363-367; Cooper, M. A.; et al., Bioorg. Med. Chem. 2000, 8, 2609-2616; each herein incorporated by reference in its entirety)). The experiments employed SPR spectroscopy to determine the binding constant KD for dendrimer-based multivalent vancomycin conjugates to the cell wall ligands immobilized on the chip surface as a model for the bacterial cell surface. The model surface was prepared by utilizing each CMS sensor chip which was treated to present N^α-Ac-Lys-(D)-Ala-(D)-Ala or N^α-Ac-(D)-Ala-(D)-Lac as the cell wall precursor on the surface, each representing a vancomycin-susceptible and vancomycin-resistant cell wall model, respectively (see, e.g., Rao, J.; et al., Chem. Biol. (Cambridge, Mass., U.S.) 1999, 6, 353-359; Rao, J.; et al., J. Am. Chem. Soc. 1999, 121, 2629-2630; each herein incorporated by reference in its entirety)). Such a peptide-presenting chip was prepared typically following a N-(3-dimethylaminopropyl)-N′-ethylcarbodiimide (EDC)-based amide coupling method at a surface peptide density of 0.12 ng/mm^2 (equivalent to 2.2×10^11 molecules/mm^2) (see, e.g., Hong, S.; et al., Chem. Biol. (Cambridge, Mass., U.S.) 2007, 14, 107-115; Plantinga, A.; et al., ACS Med. Chem. Lett. 2011, 2, 363-367; each herein incorporated by reference in its entirety)).
SPR spectroscopy. […]

[12] = system: N^α-Ac-Lys-(D)-Ala-(D)-Lac peptide; assay: SPR binding to vancomycin-resistant bacterial cell wall model
Excerpt: SPR spectroscopy is a real-time kinetic method that allows the measurement of the on-rate constant (kon), the off-rate constant (koff), and equilibrium dissociation constant KD (=koff/kon) for receptor-ligand interactions occurring on the surface (see, e.g., Rao, J.; et al., Chem. Biol. (Cambridge, Mass., U.S.) 1999, 6, 353-359; Rao, J.; et al., J. Am. Chem. Soc. 1999, 121, 2629-2630; Hong, S.; et al., Chem. Biol. (Cambridge, Mass., U.S.) 2007, 14, 107-115; Li, M.-H.; Eur. J. Med. Chem. 2012, 47, 560-572; Plantinga, A.; et al., ACS Med. Chem. Lett. 2011, 2, 363-367; Cooper, M. A.; et al., Bioorg. Med. Chem. 2000, 8, 2609-2616; each herein incorporated by reference in its entirety)). The experiments employed SPR spectroscopy to determine the binding constant KD for dendrimer-based multivalent vancomycin conjugates to the cell wall ligands immobilized on the chip surface as a model for the bacterial cell surface. […]

Molecule	valency-corrected β (= β ÷ n) [1]	β (multivalent binding enhancement = KD vancomycin ÷ KD G5-(V)n) [1]	valency-corrected β (= β ÷ n) [2]	β (multivalent binding enhancement = KD vancomycin ÷ KD G5-(V)n) [2]	Kd [3] [µM]	koff [3] [s⁻¹]	kon [3] [M⁻¹ s⁻¹]	Kd [4] [µM]	koff [4] [s⁻¹]	kon [4] [M⁻¹ s⁻¹]	further results
VI GA-G5-(V)6.0	293	1760	74000	440000	0.00054	0.00036	670000	0.0034	0.0028	1.8e+06	
III Ac-G5-(V)3.5			210000	750000				0.002	0.00045	640000	
CCCCCCCCCCNCCN[C@@]1(C)C[C@H](O[C@H]2[C@H](Oc3c4cc5cc3Oc3ccc(cc3Cl)[C@@H](O)[C@@H](NC(=O)[C@@H](CC(C)C)NC)C(=O)N[C@@H](CC(N)=O)C(=O)N[C@H]5C(=O)N[C@H]3C(=O)N[C@H](C(=O)N[C@H](C(=O)O)c5cc(O)c(CNCP(=O)(O)O)c(O)c5-c5cc3ccc5O)[C@H](O)c3ccc(c(Cl)c3)O4)O[C@H](CO)[C@@H](O)[C@@H]2O)O[C@@H](C)[C@H]1O [telavancin]											bactericidal activity / cell lysis (bacterial cells): potent bactericidal activity without causing cell lysis
Vancomycin (peptide)											β (multivalent binding enhancement = KD vancomycin ÷ KD G5-(V)n) [5]: 1; β (multivalent binding enhancement = KD vancomycin ÷ KD G5-(V)n) [6]: 1; Kd [7]: 0.95 µM; Kd [8]: 1500 µM
IV Ac-G5-(V)5.8	655	3800	150000	880000	0.00025	4.4e-05	450000	0.0017	0.00029	690000	
II Ac-G5-(V)2.3	122	280	81000	190000	0.0034	0.00045	150000	0.0081	0.00041	320000	
I Ac-G5-(V)1.2			18000	210000				0.0071	0.00066	98000	
CN[C@H](CC(C)C)C(=O)N[C@H]1C(=O)N[C@@H](CC(N)=O)C(=O)N[C@H]2C(=O)N[C@H]3C(=O)N[C@H](C(=O)N[C@H](C(=O)O)c4cc(O)cc(O)c4-c4cc3ccc4O)[C@H](O)c3ccc(c(Cl)c3)Oc3cc2cc(c3O[C@@H]2O[C@H](CO)[C@@H](O)[C@H](O)[C@H]2O[C@H]2C[C@](C)(N)[C@H](O)[C@H](C)O2)Oc2ccc(cc2Cl)[C@H]1O [Vancomycin, vancomycin]											reduction in affinity of (D)-Ala-(D)-Lac surface to free vancomycin ([9]; relative to (D)-Ala-(D)-Ala, reported): ~1000 fold; Kd ([9]; vancomycin to (D)-Ala-(D)-Lac, literature): ~1000 µM and 1700 µM; Kd [10]: ~1 µM; concentration at which optical density decreased to the background level (Staphylococcus aureus): ≥ 0.1 µM; Kd [11]: 0.95 µM; Kd ([11]; mean (SEM), vancomycin by Scatchard analysis): 0.95 µM; SPR binding response to the (D)-Ala-(D)-Ala surface ([11]; in words, vancomycin at concentrations as low as 2 nM): no detectable response; Kd ([12]; (D)-Ala-(D)-Lac surface, mean (SEM), vancomycin by Scatchard analysis): 1500 µM and ~1500 µM; SPR binding response to the (D)-Ala-(D)-Lac surface ([12]; in words): very low responses

Reference: US20150306238A1, “BACTERIA TARGETING NANOPARTICLES AND RELATED METHODS OF USE” (THE REGENTS OF THE UNIVERSITY OF MICHIGAN, priority 2012, published 2015)
